# Results reported in the supplement of paper PMC10724198.
# ± gives the standard deviation of the averaged measurements.
# System: Saccharomyces cerevisiae
# Test: protein stability index of tFT-peptide fusion (C-terminal peptide) (PSI (0-1 scale)); higher = more stable (slower turnover)
# Details: genetic background: wild type; temperature: 30 C
# 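Further: PSI is a weighted mean of sequencing reads over stability bins, variants kept only with over 10 reads, mCherry proximal and sfGFP distal, peptide attached via GGGS linker.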
row,Sequence,protein stability index
1,YREIVKQTENKR,0.673 ± 0.0083
2,NDLYDVLKYLFN,0.712 ± 0.086
3,PRSPSLPPLFSP,0.718 ± 0.072
4,PEGPGAGRGEHN,0.686 ± 0.044
5,PPPHAKPPPGPL,0.672 ± 0.019
6,GWGHYFGLIREQ,0.698 ± 0.045
7,EGGKRGGTPITK,0.654 ± 0.025
8,VGSSPYTVFVSG,0.747 ± 0.11
9,LFITTSLFRPFA,0.53 ± 0.015
10,LSLPPLRPPYPP,0.678 ± 0.091
11,ALMEFLVFSRCG,0.642 ± 0.074
12,GGGVSFWLGVVA,0.6211 ± 0.0026
13,LGRGRGGCLGEL,0.5915 ± 0.0034
14,VSAYWFLLFGSV,0.662 ± 0.13
15,YLGWLYQKCGTV,0.639 ± 0.056
16,RSARGQFRGISC,0.739 ± 0.23
17,LPPCPLFPPVHF,0.757 ± 0.1
18,PHYLPHAPHGAL,0.704 ± 0.037
19,LRRKSLHFSFPF,0.618 ± 0.054
20,LVTGRVASPPLG,0.696 ± 0.043
21,RLFTLVPIGPFM,0.704 ± 0.055
22,VPDGVAGRRPDR,0.679 ± 0.056
23,GGGGGGGAWKGV,0.69 ± 0.02
24,CQRHGTKIHRRR,0.736 ± 0.053
25,FVPRFPGTTINS,0.681 ± 0.049
26,DGPRPPRPSPVP,0.699 ± 0.04

row,Sequence,protein stability index
1,VGAGVAGGASVS,0.613 ± 0.027
2,MAVYLKYSLLRL,0.515 ± 0.037
3,LVCMGCCVRTYT,0.608 ± 0.037
4,HSALLRSASLSF,0.705 ± 0.022
5,LQHRHSTSPRPT,0.657 ± 0.037
6,PNSTIVATKGVT,0.648 ± 0.076
7,GDHGSYAGPALL,0.673 ± 0.047
8,CVIESIEQCLSR,0.716 ± 0.045
9,AVSHGLFALPFL,0.703 ± 0.012
10,GWFWGRGGRGRG,0.657 ± 0.05
11,PFWGKWVPSSYL,0.7126 ± 0.0053
12,LLKNPFRGTSVF,0.737 ± 0.11
13,GNCVESCMWQRE,0.704 ± 0.05
14,SRRLQSPVRVVT,0.773 ± 0.15
15,SIVAWGWPAASE,0.85 ± 0.19
16,SEAGSVMPIGLV,0.642 ± 0.082
17,PPRVPCLVPKSR,0.715 ± 0.014
18,PRPPPPPPPLPP,0.692 ± 0.03
19,IGAHTRRRVNGA,0.675 ± 0.096
20,LRHWKALVTYLL,0.566 ± 0.052
21,REGYGVGRERGD,0.649 ± 0.017
22,SCFCNFFRFCCI,0.637 ± 0.029
23,DQLGARSGELLR,0.697 ± 0.063
24,GKYKKGNSIAIE,0.598 ± 0.012
25,NINNKRNHIHLK,0.648 ± 0.075
26,PPPPLPLPPFSP,0.8017 ± 0.0011

row,Sequence,protein stability index
1,DLTGKGCIYMER,0.702 ± 0.034
2,MSMVVCHGGGGL,0.663 ± 0.017
3,VVGAIRWGGGRR,0.705 ± 0.014
4,ALLPPPCFFLLP,0.673 ± 0.0041
5,SPSTSPPPSSSS,0.697 ± 0.042
6,LPPPAPRSHCPL,0.725 ± 0.098
7,PFLLFVSSTCPL,0.605 ± 0.024
8,NIAPPNHASIVL,0.695 ± 0.014
9,LRSPAILFSFAF,0.602 ± 0.043
10,WVLPFLGAWLEL,0.606 ± 0.063
11,SASSAHLDGACR,0.691 ± 0.0075
12,GYPPDPSPPRLL,0.724 ± 0.015
13,VWCVWGVGGLWA,0.648 ± 0.025
14,VVRLGLVSGCGG,0.581 ± 0.013
15,LPPRPPRPPPSP,0.666 ± 0.019
16,PLRPPPRPRQTH,0.671 ± 0.056
17,CWVRGLEYCSIW,0.676 ± 0.028
18,WSGQWCRGRAGG,0.706 ± 0.018
19,GAWASLPGLISP,0.729 ± 0.058
20,LLALQCSLFTPH,0.678 ± 0.15
21,PPPPPPPPPRSS,0.718 ± 0.021
22,ERSVTVKIRDLL,0.6767 ± 0.0036
23,HPSPPAPAPLYP,0.667 ± 0.11
24,IFRERWGCFEAI,0.763 ± 0.13
25,VGWWVAVGWGLG,0.704 ± 0.067
26,SPPPSPAPPPPP,0.684 ± 0.083

row,Sequence,protein stability index
1,FIGFGCGLVWSV,0.613 ± 0.019
2,KRKKKKKRRTKK,0.6442 ± 0.0045
3,GVCRGSRVGLVP,0.714 ± 0.025
4,PHLSPPGLPTTP,0.685 ± 0.055
5,RKLDRDLTPESF,0.666 ± 0.048
6,DFPLISAHNTVC,0.655 ± 0.033
7,GRKGGEGERERT,0.6715 ± 0.0049
8,NRLVQNRQVQLY,0.682 ± 0.014
9,GKCFSFSFNCLH,0.521 ± 0.023
10,VPTCFPLSPSPP,0.714 ± 0.016
11,ALFPNALYQTLL,0.723 ± 0.05
12,SFLISPFSLFSS,0.771 ± 0.051
13,FQEDSPVSQRYP,0.645 ± 0.041
14,PPPSSSLLPLPF,0.817 ± 0.14
15,TVPFGLPVRPSP,0.7464 ± 0.004
16,FSMHFARFFSCS,0.687 ± 0.061
17,PPSPPCHTVTSA,0.679 ± 0.054
18,GMKDKSVRTIKK,0.721 ± 0.0035
19,LLDEHGKRRKKI,0.713 ± 0.0011
20,GVDGGGKWRGWG,0.651 ± 0.06
21,QYSDRQGGRATD,0.708 ± 0.015
22,LPSLSSFALHMP,0.685 ± 0.018
23,PKNPRSTNGQLS,0.67 ± 0.055
24,RQSDPFCCSTHP,0.7449 ± 0.0023
25,DHGVRASSRATG,0.692 ± 0.015
26,DGKGLRATWQWS,0.737 ± 0.037

row,Sequence,protein stability index
1,VVVGGVGGFFGC,0.754 ± 0.015
2,VSRHRRLAGMIW,0.735 ± 0.018
3,APVTFDKSHVST,0.669 ± 0.031
4,LGVAFCAPRLFY,0.743 ± 0.023
5,WSGWGYGISALL,0.681 ± 0.047
6,PLLSCLFLLFFL,0.526 ± 0.0065
7,PRSPPPLPPSSL,0.705 ± 0.029
8,NFRHSVTTSEVN,0.737 ± 0.013
9,SSPLWCFRLVFF,0.583 ± 0.015
10,FCNAVLSCFSIF,0.597 ± 0.0068
11,LLPCLSSLPPLP,0.7 ± 0.064
12,PNPPPPPPPSSP,0.742 ± 0.058
13,ANAPPTASFSPP,0.6745 ± 0.0014
14,SRPLQPLHQPKY,0.681 ± 0.052
15,DTCWHELILAFS,0.592 ± 0.087
16,SSTEYYDIRKIR,0.675 ± 0.025
17,PVPDDVTVLLSR,0.804 ± 0.12
18,WRSSSFFPAAVG,0.6715 ± 0.0042
19,PSPLPPPPLLPP,0.775 ± 0.28
20,SNLPVSSLPSLS,0.6818 ± 0.0048
21,PLPPPRPPPSPP,0.603 ± 0.071
22,WNWSIITTENKP,0.7 ± 0.064
23,FMYRDVPFLRAP,0.697 ± 0.03
24,PPAPPPPSTPHP,0.672 ± 0.13
25,FSPRHSPFSVAR,0.803 ± 0.05
26,SPPPTSQHSGPP,0.657 ± 0.042

row,Sequence,protein stability index
1,LLSSIPSLMFYY,0.667 ± 0.046
2,RREASLGSYSFE,0.69778 ± 0.00039
3,CPRLWGGRLLMR,0.5867 ± 0.003
4,SVSRTARELREV,0.65902 ± 0.00035
5,PRLPPRSPRPPA,0.7369 ± 0.0048
6,SPLLFLLPPAAP,0.692 ± 0.062
7,SATLRCASLSFC,0.679 ± 0.014
8,RRPHLLCSPARL,0.883 ± 0.012
9,ITEGGANLEGRF,0.661 ± 0.029
10,GDSPSGKPAERT,0.661 ± 0.065
11,LVRHCIPIIPPP,0.638 ± 0.026
12,GWGLCGRAAGVE,0.692 ± 0.011
13,VRRVHAMVLLGG,0.65 ± 0.014
14,HPPLTPLRANLP,0.74 ± 0.039
15,PPPPLPPLSPSP,0.7604 ± 0.0068
16,RRGDMSEGEREE,0.672 ± 0.052
17,GGARGEDRRAYV,0.668 ± 0.054
18,TVIWNSLRNCKF,0.819 ± 0.15
19,PLHLPPFRPSPR,0.676 ± 0.12
20,RNGFGSWFRWKM,0.7014 ± 0.0069
21,TAVIRASRFEEI,0.672 ± 0.0055
22,CPYIFLLSLGNT,0.651 ± 0.017
23,PPPPHPPPPLFP,0.714 ± 0.083
24,REDSGGVNWGRC,0.692 ± 0.039
25,VRISGLSALPHF,0.70793 ± 9.5e-05
26,SGVAAPVRPRSV,0.854 ± 0.11

row,Sequence,protein stability index
1,KKYKKIGYRRIP,0.773 ± 0.12
2,GGRGSRWAGPRC,0.669 ± 0.038
3,PFFFLPPSRPRP,0.671 ± 0.023
4,KSLRLFSVLSFV,0.627 ± 0.016
5,VCIAKCKYNKTS,0.606 ± 0.015
6,ERVEETGREQPT,0.754 ± 0.037
7,GLPTPSNVPPFG,0.703 ± 0.01
8,HDDQIRASQNKL,0.747 ± 0.026
9,TTKKKKGKKKYH,0.681 ± 0.048
10,PSSLPPLSAPSS,0.6829 ± 0.0035
11,KIKKKKEQTKKK,0.752 ± 0.15
12,LVGIYYEHPISP,0.754 ± 0.13
13,MVEFWDLPGRSC,0.744 ± 0.081
14,GGRGAVSGIVRK,0.613 ± 0.014
15,MGLYSNTRNWGS,0.682 ± 0.034
16,PLPIGLRHVKSE,0.696 ± 0.018
17,GLPCLSPPLAPS,0.683 ± 0.034
18,EVMAIISTRILG,0.647 ± 0.07
19,NEIRNKETETVM,0.665 ± 0.023
20,GLEGSVRRVRGS,0.701 ± 0.011
21,DSETLLSKEWKQ,0.651 ± 0.11
22,EKNEREEAESGG,0.714 ± 0.038
23,VMPSICTKYGVN,0.717 ± 0.13
24,HISACKFPARTA,0.692 ± 0.057
25,CGRITADKRILL,0.65 ± 0.098
26,TNTPSYSSRAEF,0.733 ± 0.11

row,Sequence,protein stability index
1,CRRCRIHSGIYD,0.672 ± 0.034
2,CPFTDPRRQQSV,0.646 ± 0.028
3,VVLFCPFISSED,0.726 ± 0.012
4,VRVALISDRGKQ,0.738 ± 0.025
5,PLCPPPLPTPPP,0.5849 ± 0.0028
6,PAPFPAPPTHGP,0.7165 ± 0.0061
7,LLHMSRLWYTTF,0.595 ± 0.022
8,GYGLGVEAEGLE,0.715 ± 0.054
9,GGLGLVESVFVI,0.67 ± 0.052
10,CIPVTGLHFRVI,0.6136 ± 0.0035
11,CSLSRFLGCWGF,0.668 ± 0.062
12,GGGFLGGTVAAV,0.7 ± 0.032
13,LPRRLLFSYPTF,0.647 ± 0.02
14,QRMKHQKVTSNP,0.732 ± 0.06
15,ARHPLCLPVLLT,0.548 ± 0.02
16,IHCFSVDLLVAR,0.542 ± 0.018
17,CTCLHSSGVRHT,0.692 ± 0.047
18,IVPIVDMMIIRK,0.653 ± 0.068
19,NKRKKKRTEPQP,0.661 ± 0.013
20,LGFNRRSKTRMI,0.704 ± 0.014
